Reference: patent US10208290B2, “Virion display array for profiling functions and interactions of human membrane proteins” (THE JOHNS HOPKINS UNIVERSITY, priority 2013, dated 2019)

Tests used:
GPR77 [1] = experiment: Ligand binding assay on VirD Array; design: species or system human; conditions: C5a at 1 μM
Method: (§1) Ligand binding assay on VirD Array. The VirD Array was blocked in TBST with 1% BSA for 1 h at room temperature with gentle shaking. C5a (Abcam) was labeled with Cy5 NHS Easter (GE Healthcare) and incubated on the VirD Array at 1 μM in ligand binding buffer (1 mM MgCl2, 2 mM CalCl2, 0.2% BSA, and 25 mM HEPES, pH 7.4) at room temperature for 1 h with gentle shaking. The array was washed for […] in ice-cold washing buffer (0.5 M NaCl in 10 mM HEPES, pH 7.4) for 3 times with shaking, dried by spinning, and scanned as described above.

GPR77 [2] = biological target: T1, GPR77 (Homo sapiens, UniProt Q9P296); experiment: Ligand binding assay on VirD Array; conditions: C5a at 1 μM, gB:GPR77 virions on VirD Array
T1 construct: gB:CD4 and gB:GPR77, express the full-length human membrane proteins at the gB locus under the control of native gB promoter; made in house; host or cells: HFT cells (telomerase-immortalised human foreskin fibroblasts) infected with recombinant HSV-1; purified extracellular virions
T1 sequence (Q9P296 whole entry): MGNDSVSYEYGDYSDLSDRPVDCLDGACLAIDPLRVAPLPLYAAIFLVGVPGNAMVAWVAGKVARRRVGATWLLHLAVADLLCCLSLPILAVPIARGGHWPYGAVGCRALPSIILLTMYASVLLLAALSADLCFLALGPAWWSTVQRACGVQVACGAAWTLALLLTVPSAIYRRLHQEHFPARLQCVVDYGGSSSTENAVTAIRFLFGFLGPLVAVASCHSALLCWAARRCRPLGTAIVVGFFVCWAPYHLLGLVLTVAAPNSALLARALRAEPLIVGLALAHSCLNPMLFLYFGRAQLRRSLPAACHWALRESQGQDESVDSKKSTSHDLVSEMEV
Method: as §1

B1: C5a: complement anaphylatoxin C5a, canonical ligand of GPR77 (Abcam), labeled with Cy5 (protein)
chain: TLQKKIEEIAAKYKHSVVKKCCYDGACVNNDETCEQRAARISLGPRCIKAFTECCVVASQLRANISHKDMQLGR
GPR77 [1]; GPR77-gC virions on VirD Array
  binding of Cy5-labeled C5a to GPR77-gC virions: strong binding activity
GPR77 [1]; other virions on VirD Array (specificity)
  binding of Cy5-labeled C5a to other virions: no detectable signals
GPR77 [2]
  binding of Cy5-labeled C5a to gB:GPR77 virions: weaker binding signals
